Assay results as given in a protein production outcome set (Wang et al. 2014).

test: label from the status in PepcDB records

**Q.** Which protein production does the source give for “MKLDDLNLFRQVVENGSYTAASRKTLIPVATITRRIQALEDSLDIRLLNRHARKLSLTEAGQKFYDECAPILATLVNTSEYLGEECRGAAGKLKIAAPSNLTKRMIQPILNKFMLLYPDISINLTMSNQPEQLDPTDWDIIFRVGKQRDSSLIARQIGSLEDILVASPSYLEKNSEPTHAQELHKHSLLKGNPLMRWRLTNKDGESVTITDAGRFEASELNVIRMACSNGLGITLMPDIMISQYLEEGSLIRVLSDWSANPRDIYMIYNYKDHQPEKVRLFIDFVSNHIPD” here?
**A.** Its protein production is “failed”.

**Q.** Which protein production does the source give for “MKLELGNIFIKNVEFGEKTEVKDGVLYISSEEIEKIVLEDERIVSVNVELARPGESIRIAPVKDVIEPRVKIGDESKIFPGIINKVKTVGSGRTHVLLGACVVTCGNIVGFQEGVIDMSGPTAKYTPFSKTNNICIVIKAKDGIDTHDYEEAARIAGLKIGAYVGEAGREVEPDEVIVYETKPLLKQVKEYPDLPTVAYVHMLQSQGLLHDTYYYGVDAKQIVPTFMYPTEIMDGAIISGNCVAPCDKVTTFHHLNNPVIHDLYKRHGKDLNFIGVILTNENVFLVDKERSSDMVAKLIEFLGVDGVLVTEEGYGNPDTDLMMNCRKCSEVGANVVLITDEFPGKDGKSQSIADATKEADAVVSCGQGNLVVHFPAMEKIIGTLDYVEMMIGGYKGCLNEDGSMDAELQIIIASTIANGYNHLTARYY” here?
**A.** Its protein production is “failed”.

**Q.** Which protein production does the source give for “MKLERKNSGIIFLIFGVVFVLNALNPVMELLYIKAKGEIAEAKIVAYDFIQRSSRSGRGSSYKYIPIIEFFDGKEIVQVPVTMNSLNEELDIIGLDVKVSYLKNTPSKVIIDDKLFWLYEISNSLVVVGSFLLMVMLSQMSVETYRGRELTFNVPTKNKIIFLISGLPGVIGTFLSFYYGFITLKYNGLGFTSGTLILSLLIIGVYLLGIVNFLKIKNNYWG” here?
**A.** Its protein production is “failed”.

**Q.** Which protein production does the source give for “MKLIAVLNLLNQLSNKNSLEEYLNGVIDFLSGWTGCENIGIRVLREAGLAPYVVHRGFDKDFIASESCISVEGDECVCLRVLKQQFKSEDQDHISAAGTYYAPNFYRYVEELREDQLLNFRGLCAHKQFKSLAVIPLLHQGKVVGAIHIADIKDGVFSEEDIHFIETIRPLVAEAIYRHNLEKALEHHHHHH” here?
**A.** The protein production was “failed”.

**Q.** With “MKLIVVTTPTFFVEEDKIITALFEEGLDILHLRKPETPAMYSERLLTLIPEKYHRRIVTHEHFYLKEEFNLMGIHLNARNPSEPHDYAGHVSCSCHSVEEVKNRKHFYDYVFMSPIYDSISKVNYYSTYTAEELREAQKAKIIDSKVMALGGINEDNLLEIKDFGFGGAVVLGDLWNKFDACLDQNYLAVIEHFKKLKKLADLEHHHHHH” as the sequence, how does the protein production read?
**A.** Its protein production is “not failed”.

**Q.** For “MKLKRKILALLMAALLAVSLAGCGQTSQAPANPPAAPEAGTPTERTVTDMAGRTVTLPAEVKTVGTFGSIGVLNAFVETLSAGERLANEGSPSFVKSPTWEKYQYQFTPHIKNLKPFQGADSELLMENILAAKPDVCLTMSADLTEQLEKQGLNVVQLSWTKTEDVKECITLLGEVLNQQEVAADYLKYFDDMLAKAADLTKDIKDADKKTVVYGNVSKFSQPHVIAEWWIDKAGGISVTSEAMTKANKESLTYTLEDLLKWNPDVMFVASAAEKKEVLADARLGEITAVKNGAIYIVPRIAHVWGNRTTEQPLTIMWAMNKLYPEIVTDSQLAEDISYFYSHFFKYDFNADQLKEIMGK”, which protein production is on record?
**A.** The protein production was “failed”.

**Q.** Which protein production does the source give for “MKLKTEPLSNEKNFSKVKKALSSIPQVRDQKFEEETNTVTIKVVCCSPEKVMDKLCSKGRGAIKLIETIDPAKHVAQKPKEPEKPKEAEKPKEPEKPKPAAAPAQGDPSSQRVTHGYNPPPMMGHPVPWSDGPNYGWSRPNGYDERPIYNSYGGWQPPPSQYGGRSHYEEEQPSCSIM” here?
**A.** Its protein production is “failed”.

**Q.** With “MKLLLIGYGNVGKAFRRLLHEKKDNYPILQGVEIAGIITRQGLMVGDKENFSPDKQLTVLEAIDYINPDVIVDMSVPNYKDGEPSVSAYIKALSRKIHVITVNKAPLALKFREIFEVAEKTGAKIGFQGTVMSGTPSINLFRIQPVAEVSRIRGILNGTTNYILTRIYEGLSFNEALKEAKEKGYAEEDPTLDLNGFDAAAKLTILSNFIMNRSLKLGDFKFKGITEITNEEIRRAKSEGKKIKLIAYADNYVVQVSPQIIGPQDPLYYIDGVENALEIQNEIQRIIIRGPGAGPINAAYGALSDLVLLLEGCL” as the sequence, how does the protein production read?
**A.** Its protein production is “failed”.

**Q.** Which protein production does the source give for “MKLLSQLLLFTSLTFPLSSFAALGEHPIILIHGFQAGQLQTKPNHDAVVADGKNYWQDYWLAKADDRIDWPSQERVAGKISTDYIWPKLQELSKNNTCKNGCILVTHSTGDLVARHLLDNQENW” here?
**A.** Its protein production is “failed”.

**Q.** Which protein production does the source give for “MKLNVKMLSVTLGLFTSHAFAHTVYENARIYTVNDQQPTASVLVVEQGKIIYVGGNDGAKQFKATAAELFDLEGKTVLPGFIESHAHPATVAVMQAGDFVYVDGAASLTQILNQLKDYLAAHPKANYLLAQGFNVASLGLPQGALPTAADLDTVSTSIPIVVYDSGMHAGWANSAALKIAHVDANTPDPISGKHYFERDNKGNPTGFMHESAMHNVVDAQQFNTVENVAEQLKPILNTYHSLGFTAITDVGDTFSTTTAAIARLNDQGKLKVYYQRGYFYDAAKSTEQNIASLKALREKYNRGNLSMNLYKLFMDGTIEMDSGAMFKPYPNGNIVEPFLSQKQINDNVAAALKAGFSVHVHAIGDKAQQSILDAFEASKNINPHLARVIAHNQVFEPQGVQKFAAMKDNLFLQTTPNWTVLNEKDETKTKIGSDAYNHQYLLGQVVREGVAVTFGSDYPANTFDAVNPFSQMYHAIKRGQPNAGYLPPTDAAMTLDQSLRAYTINGAKQLGISDITGSLEKGKNADFIIVDTDIGSVDLEKLKNTNVLATYFKGEKVY” here?
**A.** The protein production was “failed”.

**Q.** Which protein production does the source give for “MKLPPGFSISVWANVPDARTMTLGDKGTVFVGSKSAGNVYAITENAGKRQIRIIASKLKMPNGVAFHDGALYVSSVNRILRFDNIENTLDQPLPPRIITADYPKETYHGWRFIAFGPDGWLYVPVGSSCNVCETDLEHYALISRIRPDGSNYEVFAKGVRNTEGFDWHPVTKALWFTDISREWMGDNLPPDELNHASNQGLDFGFPYCHGKEVSDPKLGAKRDCNKFIPPAVELDPHVAPMGMRFYTGTMFPAEYHNGIFIAEHGSWNRSTKIGYRLEWVQLEVNEVARKEIFAEGWLQENEAWGRPVDVLVMPDGALLVSDDMAGVVYRISYDQPLEHHHHHH” here?
**A.** The protein production was “not failed”.

**Q.** With “MKLQLYVLRTVATRILGAALILMSVLQILDLLDVTSDILDRGLGMAGVGYYAALRLPRLFEQVAPIAVLAGGLFAFSQLARESAIVAMRASGISGYRIVGMAVPAAVAVMLLDALCGQVLAPRADPTLADWWRNTTPVAERKEPVPRTFRAGADLVIGANASADGRTITGVTIFRRDSKGILVEKVEAPAARYDGKAWTLEQPKTTRFAGDLSQASTAAATSWPTALRPQDVQGLFGDDSMPTAASARRALENGGSDRPESFYATHLQAAFASPFVSLVMLLLSAPVALANFRSGQGAVLLTGGLAAGLMFLVANGMLTALGESGALTPFLAVWAAPAIFGALAVRTFLALEG” as the sequence, how does the protein production read?
**A.** The protein production was “failed”.

**Q.** For “MKLQVLPLSQEAFSAYGDVIETQQRDFFHINNGLVERYHDLALVEILEQDRTLISINRAQPANLPLTIHELERHPLGTQAFIPMKGEVFVVVVALGDDKPDLSTLRAFITNGEQGVNYHRNVWHHPLFAWQRVTDFLTIDRGGSDNCDVESIPEQELCFA”, which protein production is on record?
**A.** The protein production was “not failed”.

**Q.** For “MKLRLRHHETRETLKLELADADTLHDLRRRINPTVPSSVHLSLNRKDELITPSPEDTLRSLGLISGDLIYFSLEAGESSNWKLRDSETVASQSESNQTSVHDSIGFAEVDVVPDQAKSNPNTSVEDPEGDISGMEGPEPMDVEQLDMELAAAGSKRLSEPFFLKNILLEKSGDTSELTTLALSVHAVMLESGFVLLNHGSDKFNFSKELLTVSLRYTLPELIKSKDTNTIESVSVKFQNLGPVVVVYGTVGGSSGRVHMNLDKRRFVPVIDLVMDTSTSDEEGSSSIYREVFMFWRMVKDRLVIPLLIGICDKAGLEPPPCLMRLPTELKLKILELLPGVSIGNMACVCTEMRYLASDNDLWKQKCLEEVNNFVVTEAGDSVNWKARFATFWRQKQLAAASDTFWRQNQLGRRNISTGRSGIRFPRIIGDPPFTWFNGDRMHGSIGIHPGQSARGLGRRTWGQLFTPRCNLGGLN”, which protein production is on record?
**A.** The protein production was “failed”.

**Q.** For “MKLSATIAIILLNWNGWRDTVDCVESCRKLDYPNFRIVIVDNGSTDGSEAILRERFPDVELIQTGANLGFAGGNNAGIRHALVRGADYVWLLNNDTVVEPGALGALVRVAESDPRVGMVGSKIVYFDDPWLLWFAGAVIDPERPHRPFHRGLHERDTGQYDRVAETGYVTGCSLLARREMMAEVGMLDDDLFLYFEDADWSARAARAGWKLLYVPDSVVRHKESVSSGGAASPRLVYYTARNRLYFVRRNFPAKLAAALCYDLFEHVLVNVKKGRFPLAVAGCRGIRDFLAGKIGPMPLEHHHHHH”, which protein production is on record?
**A.** The protein production was “not failed”.

**Q.** For “MKLSCVIVSHNMKNYIGRCIDSVRTALADIRSLVGEAEIIVVDRGSTDGTANAARTAYADVTIVDVPFDAGWATAANKGACAATGETLLFVSPEVELLSGGLPRLLEHLETNPACAIAGGAVVSTSGALLHGPARFPGLLGKLAALTGLGSRFPRTMLDWTRYGGRNLDLPLEVDSVSFDYAVVKAAAFCKLGRFDARFHTAFADTDLCRRASRTMLPRPTVAFVPQARARAQDNFVLRDEVQAFDLHGTAVVRGRVRCEMLYVWKNYCILTSLANTTLELVGQACRYAMGLLPVIGCDKTARHSAAVLKETAQAALDTQLGSQYPTTPWLEHHHHHH”, which protein production is on record?
**A.** The protein production was “failed”.

**Q.** Which protein production does the source give for “MKLSLRYVLNQFLSTNLSIFFVLFAIVSMVFFIQLAKLTSSIEISFLDLLKLYGFMLPRILIFTLPISFFISLTLALFRLSKENESIVLFTLGFSPMILAKFFLKIASLISAFMLVVALVMIPIVFELQDNFVNYKSTQVKFNYKTGEFGQKFLDWMIFIEKQDSDKYENIIMYRPKHKADDKEQLIIAKEAHVQRKDDSFAFSLNQGKMYNFEQGQSIFSGEFDTLVVNTQFNTDNLQTKKFYEYWNDLNENPQRAREFVIYTTIALFPLASTLFALCFGLVTYRYEKGYVYLGMFGVIAIYFGLLSSFSQPPILACLGIFSLSLFVSAYCFKKMILSRY” here?
**A.** Its protein production is “failed”.

**Q.** With “MKLSNKTQALHDLIAPAVQACDVNLWGIEFIPQGKRSLLRIFIDKPVDETAEPVLNEDGETELGRGIGVQDCVRVTQQVGAILDVHDPISGEYALEVSSPGWDRPFFQLEQMSAYIGQQVALRLISAVENRRKFQAKLLLVDLENEMIQVEVDGKHVLEIDSHNIDKANLIYQD” as the sequence, how does the protein production read?
**A.** The protein production was “failed”.

**Q.** Which protein production does the source give for “MKLTDRLLKIASLVSDGKKIADIGTDHGYIPVYLLKEGKVPFAVLADVNKGPLDNAHKEVIQNNLLDKVDLRLGSGIEILEIGEVEEVIIAGMGGILISELLEAKKEVAHNVEKLILQPMQAQEELRYYLLNNGYEILEEVLVREDFRIYEIIVA” here?
**A.** The protein production was “failed”.

**Q.** Which protein production does the source give for “MKLTGQAIDGFLRKPDPKIRCVLVYGPDEGLVRERLEQLARTVVADPKDPFRITDLSGDDLRADPARLADEAAALAFGGGRRLVRLRQMTDQHAPRLKAFVEAPVGEALVLVQGGDLTARSALRKLFEGASAAAALPCYADEGRSLETLVRATLAEARLAAAPEVIDYLVANLGGDRGVSRSELAKLVTYCGKATSVSLDDALACVGDSAQIGLDMLTNAVAEGDSATALRALDRLGQEGMATVALLRGLTRHFTRLHLVAGLIAGGTSVDQALAALKPPVMFKLAPRFRSQVQRWSAERLAQALDLLLDAEIDAKSSGLPERALVERLLLRLARGAKTASRLEHHHHHH” here?
**A.** Its protein production is “failed”.

**Q.** Which protein production does the source give for “MKLVFKWHDAPLSFMEGVFARGDRRLGAALRRAWELGCRFDGWGDRFDEAAWRTAFEETGIDPAFYHRRREPDEVLPWGHLDFGVTREFLLRELELSRQGAATEDLEHHHHHH” here?
**A.** Its protein production is “failed”.

**Q.** Which protein production does the source give for “MKLVWSPETASKAYIDTVKSCENLETPDAAELIAAMAAGWNVKLIVETWSEGDAIASSIGLNVASKHANAKHICIVQNSRSESAYLQAIQESSSPLNFPETIVAEEPGKAMKKLQGVDFLVVDWRNKEFAAAALKNAAFGNRGAVVVCRNGYSSLRRVLRDRKVVRTVTLPVTGGIEIAHVAARNSGKSGNNKRRWITHVDQRSGEEHVFSI” here?
**A.** The protein production was “failed”.
